Results: patent US20210371529A1
pEC50, pIC50, pKd: −log10 of the molar value. Where two headings read alike, the source gives them in different places.

Tests used:
[1] = target: LAG-3 on activated human CD4+ T cells (human) (UniProt P18627); test: flow cytometry on activated human CD4+ T cells, MFI curve
human LAG-3-His (human) [2] = target: human LAG-3-His (human) (UniProt P18627); test: BLI (ForteBio), antibody on AHQ tip, human LAG-3-His 100 nM in solution
[3] = target: rhLAG3 protein (huFc) (human) (UniProt P18627); test: flow cytometry, blocking of rhLAG3 (huFc) 20 nM binding to HLA-DR on CHO-DR cells
Chain of rhLAG3 protein (huFc) (human) (P18627 23-450 limits assumed): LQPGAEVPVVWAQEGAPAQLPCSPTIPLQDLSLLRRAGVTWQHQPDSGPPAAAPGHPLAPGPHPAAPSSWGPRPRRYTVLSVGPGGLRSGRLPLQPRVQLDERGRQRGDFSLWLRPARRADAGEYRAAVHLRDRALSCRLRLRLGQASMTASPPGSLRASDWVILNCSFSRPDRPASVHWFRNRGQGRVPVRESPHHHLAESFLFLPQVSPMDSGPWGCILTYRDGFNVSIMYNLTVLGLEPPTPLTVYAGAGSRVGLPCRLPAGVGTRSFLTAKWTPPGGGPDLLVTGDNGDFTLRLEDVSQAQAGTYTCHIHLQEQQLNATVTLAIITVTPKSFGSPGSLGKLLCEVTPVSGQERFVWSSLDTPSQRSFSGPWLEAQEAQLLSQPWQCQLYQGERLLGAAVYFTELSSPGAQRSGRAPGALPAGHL

[4] = target: human LAG-3 overexpressed on HEK293 cells (human) (UniProt P18627); test: flow cytometry on 293-hLAG-3 cells, MFI curve
Chain of human LAG-3 overexpressed on HEK293 cells (human) (P18627 23-525): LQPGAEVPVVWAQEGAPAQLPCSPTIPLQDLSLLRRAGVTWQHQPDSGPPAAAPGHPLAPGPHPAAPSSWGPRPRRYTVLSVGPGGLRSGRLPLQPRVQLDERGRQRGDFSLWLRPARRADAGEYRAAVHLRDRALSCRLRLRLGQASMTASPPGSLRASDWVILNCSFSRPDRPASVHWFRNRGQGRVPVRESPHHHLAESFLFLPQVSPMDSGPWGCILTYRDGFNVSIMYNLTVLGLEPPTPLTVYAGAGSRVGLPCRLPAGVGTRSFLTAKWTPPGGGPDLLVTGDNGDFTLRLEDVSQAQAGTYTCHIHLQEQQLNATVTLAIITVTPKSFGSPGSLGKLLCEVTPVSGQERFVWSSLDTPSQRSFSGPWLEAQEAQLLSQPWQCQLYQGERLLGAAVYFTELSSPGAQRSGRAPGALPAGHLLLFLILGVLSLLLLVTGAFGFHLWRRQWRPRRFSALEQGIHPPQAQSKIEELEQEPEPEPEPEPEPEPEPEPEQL

human LAG-3-His (human) [5] = target: human LAG-3-His (human) (UniProt P18627); test: BLI (ForteBio), antibody on AHQ tip, human LAG-3-His 100 nM in solution, univalent
[6] = target: human LAG-3 overexpressed on HEK293 cells (human) (UniProt P18627); test: flow cytometry on 293-hLAG-3 cells, MFI curve; remark: listed apart in the source

Chain of human LAG-3-His (human) (P18627 23-450 limits assumed): as the sequence (P18627 23-450 limits assumed) above
Chain of LAG-3 on activated human CD4+ T cells (human) (P18627 23-525): as the sequence (P18627 23-525) above

## 25F7 (antibody)
[1]
  pEC50: 10.44
Human LAG-3-His (human) [2]
  koff: 0.00101 s⁻¹
  kon: 112000 M⁻¹ s⁻¹
[3]
  pIC50: 8.29
[4]
  pEC50: 8.48
Human LAG-3-His (human) [5]
  pKd: 8.04
[6]
  pEC50: 8.59
